Experiment in all cases: EC50 of free RNA motif oligo competing protein binding to immobilised probe
One data set addresses T1, RBM14 (UniProt Q96PK6).
T1 sequence: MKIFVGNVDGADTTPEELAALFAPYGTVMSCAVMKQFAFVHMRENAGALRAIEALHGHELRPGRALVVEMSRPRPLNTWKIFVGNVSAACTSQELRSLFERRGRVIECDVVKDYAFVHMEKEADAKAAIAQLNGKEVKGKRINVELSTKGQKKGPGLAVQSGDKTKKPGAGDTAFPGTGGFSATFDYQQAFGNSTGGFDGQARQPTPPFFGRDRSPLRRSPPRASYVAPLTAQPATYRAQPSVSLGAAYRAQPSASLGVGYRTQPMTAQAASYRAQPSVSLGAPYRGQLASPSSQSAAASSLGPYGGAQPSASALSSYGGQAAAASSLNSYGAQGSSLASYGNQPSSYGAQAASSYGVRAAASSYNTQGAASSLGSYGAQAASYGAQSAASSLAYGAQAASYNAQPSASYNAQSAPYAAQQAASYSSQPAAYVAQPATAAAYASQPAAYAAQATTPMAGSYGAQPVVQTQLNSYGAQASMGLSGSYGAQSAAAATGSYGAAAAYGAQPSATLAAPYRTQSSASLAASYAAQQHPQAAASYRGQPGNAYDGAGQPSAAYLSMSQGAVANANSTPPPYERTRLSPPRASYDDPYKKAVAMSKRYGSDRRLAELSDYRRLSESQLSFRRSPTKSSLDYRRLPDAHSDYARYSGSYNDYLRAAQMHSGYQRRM
The essentials:
(§1)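 Free RNA oligos (0 nM to 30 μM) were pre-incubated with HEK293-FT lysate (2.5 mg protein/well) for 1 h at 4°C, followed by 30 min at 4°C with the same 5′-amino-C6 oligos coupled to NHS-Sepharose beads. Bound proteins were quantified by label-free LC-MS/MS and normalised to the control. EC50 was derived from a four-parameter log-logistic fit, and Kd was obtained by multiplying EC50 by a protein-dependent depletion factor.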

Another data set has as its target HNRNPK (UniProt P61978). An outline of the steps:
as §1

For a further data set, the target named is HNRNPU (UniProt Q00839). The essentials: as §1
HNRNPU, sequence (Q00839 whole entry): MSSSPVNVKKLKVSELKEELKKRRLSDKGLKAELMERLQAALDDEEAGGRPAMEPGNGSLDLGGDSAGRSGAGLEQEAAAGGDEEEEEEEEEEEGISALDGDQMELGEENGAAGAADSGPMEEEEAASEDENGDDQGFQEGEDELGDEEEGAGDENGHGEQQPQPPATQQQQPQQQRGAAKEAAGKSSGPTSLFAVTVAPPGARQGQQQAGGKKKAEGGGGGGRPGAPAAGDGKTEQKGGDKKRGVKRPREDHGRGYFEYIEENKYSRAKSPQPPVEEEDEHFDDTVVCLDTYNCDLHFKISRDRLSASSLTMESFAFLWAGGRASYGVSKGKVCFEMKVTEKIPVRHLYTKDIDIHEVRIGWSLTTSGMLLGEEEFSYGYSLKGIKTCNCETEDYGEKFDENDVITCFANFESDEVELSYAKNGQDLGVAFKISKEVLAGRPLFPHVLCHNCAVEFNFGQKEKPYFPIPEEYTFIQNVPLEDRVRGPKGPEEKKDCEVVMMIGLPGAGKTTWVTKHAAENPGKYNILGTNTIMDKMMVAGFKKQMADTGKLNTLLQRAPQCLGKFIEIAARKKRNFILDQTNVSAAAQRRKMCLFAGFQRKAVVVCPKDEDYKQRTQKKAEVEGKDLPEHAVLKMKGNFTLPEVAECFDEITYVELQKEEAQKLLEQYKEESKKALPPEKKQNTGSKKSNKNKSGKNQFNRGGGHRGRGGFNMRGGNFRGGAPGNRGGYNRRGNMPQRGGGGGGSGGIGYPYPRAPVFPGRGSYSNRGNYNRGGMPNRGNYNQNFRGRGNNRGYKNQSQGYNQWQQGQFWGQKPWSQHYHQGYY
The next data set addresses IGF2BP2 (UniProt Q9Y6M1). An outline of the steps:
as §1

The next data set concerns the target IGF2BP3 (UniProt O00425). The essentials: as §1
The target in the next data set is MRPL21 (UniProt Q7Z2W9). An outline of the steps: as §1
The next data set deals with MRPL22 (UniProt Q9NWU5). The essentials: as §1
The next data set has as its target SRSF6 (UniProt Q13247). An outline of the steps:
as §1

The next data set has as its target T2, SRSF7 (UniProt Q16629).
T2 sequence: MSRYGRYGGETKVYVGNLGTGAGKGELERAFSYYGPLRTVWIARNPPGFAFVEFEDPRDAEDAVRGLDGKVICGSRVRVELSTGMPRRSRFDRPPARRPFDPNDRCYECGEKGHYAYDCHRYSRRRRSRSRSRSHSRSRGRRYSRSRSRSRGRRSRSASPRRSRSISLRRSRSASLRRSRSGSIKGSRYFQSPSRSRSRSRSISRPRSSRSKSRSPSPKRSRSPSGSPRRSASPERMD
The essentials:
as §1

The target in the next data set is T3, PRPF4 (UniProt O43172).
T3 sequence: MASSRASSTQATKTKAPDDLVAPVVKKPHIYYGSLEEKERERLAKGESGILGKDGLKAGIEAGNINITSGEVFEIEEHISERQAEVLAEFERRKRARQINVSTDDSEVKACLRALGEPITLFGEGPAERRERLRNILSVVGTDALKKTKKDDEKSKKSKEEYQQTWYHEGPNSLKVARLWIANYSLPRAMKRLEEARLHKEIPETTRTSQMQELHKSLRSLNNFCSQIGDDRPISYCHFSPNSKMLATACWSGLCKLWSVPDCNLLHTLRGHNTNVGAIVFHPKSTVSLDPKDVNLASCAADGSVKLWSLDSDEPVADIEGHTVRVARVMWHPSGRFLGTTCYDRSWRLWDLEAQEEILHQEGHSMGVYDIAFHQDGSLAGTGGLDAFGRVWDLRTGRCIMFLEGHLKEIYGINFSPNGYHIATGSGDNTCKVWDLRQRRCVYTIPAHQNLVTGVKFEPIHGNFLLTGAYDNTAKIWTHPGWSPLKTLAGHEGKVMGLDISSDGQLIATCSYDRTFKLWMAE
The essentials: as §1

A further data set addresses T4, RBM38 (UniProt Q9H0Z9).
T4 sequence: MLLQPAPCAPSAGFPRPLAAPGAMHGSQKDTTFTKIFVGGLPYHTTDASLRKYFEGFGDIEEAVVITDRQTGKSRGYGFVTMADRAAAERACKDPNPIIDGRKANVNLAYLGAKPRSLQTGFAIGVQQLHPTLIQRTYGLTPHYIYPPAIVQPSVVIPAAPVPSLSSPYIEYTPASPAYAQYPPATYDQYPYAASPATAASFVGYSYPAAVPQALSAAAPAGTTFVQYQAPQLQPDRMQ
The essentials: as §1

IGF2BP3, sequence (O00425 whole entry): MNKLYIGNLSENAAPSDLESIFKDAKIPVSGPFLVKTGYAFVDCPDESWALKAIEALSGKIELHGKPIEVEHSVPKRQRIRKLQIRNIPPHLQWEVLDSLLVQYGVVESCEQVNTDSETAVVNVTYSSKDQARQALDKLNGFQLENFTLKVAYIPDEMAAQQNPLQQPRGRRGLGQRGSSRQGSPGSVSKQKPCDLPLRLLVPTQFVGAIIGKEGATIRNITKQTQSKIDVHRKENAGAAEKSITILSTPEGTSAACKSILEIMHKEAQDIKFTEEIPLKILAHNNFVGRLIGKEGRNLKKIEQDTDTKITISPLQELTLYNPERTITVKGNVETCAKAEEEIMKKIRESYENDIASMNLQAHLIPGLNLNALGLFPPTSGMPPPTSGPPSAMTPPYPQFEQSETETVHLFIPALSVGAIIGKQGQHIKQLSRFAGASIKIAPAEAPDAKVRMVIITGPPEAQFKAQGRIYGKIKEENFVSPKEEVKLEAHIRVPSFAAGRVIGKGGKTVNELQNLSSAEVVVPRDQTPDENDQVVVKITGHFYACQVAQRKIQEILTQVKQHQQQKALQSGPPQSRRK
IGF2BP2, sequence (Q9Y6M1 whole entry): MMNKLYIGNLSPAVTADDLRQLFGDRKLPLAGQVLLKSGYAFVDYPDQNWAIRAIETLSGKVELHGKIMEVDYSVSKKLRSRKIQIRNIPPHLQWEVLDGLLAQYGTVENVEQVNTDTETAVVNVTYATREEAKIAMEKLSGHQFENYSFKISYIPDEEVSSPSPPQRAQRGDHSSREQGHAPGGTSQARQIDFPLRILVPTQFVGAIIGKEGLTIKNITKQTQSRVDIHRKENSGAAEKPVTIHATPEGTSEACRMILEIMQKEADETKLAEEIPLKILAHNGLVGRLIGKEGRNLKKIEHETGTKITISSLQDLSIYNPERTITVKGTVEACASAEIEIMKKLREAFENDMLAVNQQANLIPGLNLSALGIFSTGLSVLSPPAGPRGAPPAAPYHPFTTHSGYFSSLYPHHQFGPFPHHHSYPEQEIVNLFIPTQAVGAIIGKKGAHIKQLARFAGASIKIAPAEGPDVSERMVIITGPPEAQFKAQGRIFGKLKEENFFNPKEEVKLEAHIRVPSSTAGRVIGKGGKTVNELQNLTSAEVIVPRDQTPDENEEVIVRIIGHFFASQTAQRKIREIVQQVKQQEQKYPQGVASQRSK
SRSF6, sequence (Q13247 whole entry, looked up): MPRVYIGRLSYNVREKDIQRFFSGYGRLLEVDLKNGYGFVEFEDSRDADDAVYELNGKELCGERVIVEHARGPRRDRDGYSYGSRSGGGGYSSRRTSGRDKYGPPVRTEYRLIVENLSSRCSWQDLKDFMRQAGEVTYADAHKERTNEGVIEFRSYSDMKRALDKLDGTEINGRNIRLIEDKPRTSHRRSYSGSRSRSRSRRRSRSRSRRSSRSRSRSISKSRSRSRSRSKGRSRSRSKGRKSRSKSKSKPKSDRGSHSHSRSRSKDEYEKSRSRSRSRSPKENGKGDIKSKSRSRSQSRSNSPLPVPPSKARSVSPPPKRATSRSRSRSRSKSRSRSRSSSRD

Consider AAUAAA, for which the EC50 with RBM14 came out at 1980 nM.

Take CUGUCCU: the EC50 with HNRNPK stood at 3040 nM; in the data set with HNRNPU, 378 nM; in the data set with IGF2BP2 it was 2970 nM; in the data set with IGF2BP3, 3770 nM; with MRPL21, 151 nM; with MRPL22, 98.4 nM. Also, the values for the EC50 in the data set with SRSF6 and with SRSF7 were 1140 nM and 3020 nM, respectively.

On to UAUUUAU, for which the EC50 came to 6810 nM with PRPF4 and 2910 nM in the data set with RBM38.

The values above are taken from the supplement of paper PMC6379048.
